These results are taken from patent publication US5541078.

The target of this assay is synthetic peptide 89-122 of Eg 6 (Echinococcus granulosus). Put plainly: ELISA on bound peptide, ascites diluted to 1/100 (control).

Substance “myeloma ascites (SP2/0) (polyclonal serum or antibody)” displayed a mean of the optical densities (optical density) of 0.12.
